{"source": "paper PMC7556843", "about": "“The dynamics of linear polyubiquitin” (Science Advances, 2020)", "key": {"[1]": {"biological_target": "T1, linear (M1-linked) tetraubiquitin (UniProt P0CG48 1-76; P0CG48 1-76; P0CG48 1-76; P0CG48 1-76)", "T1 construct": "ubiquitin, 76-residue unit, first of four joined head to tail (residues 1-76 of the chain); ubiquitin, 76-residue unit, second of four (residues 77-152 of the chain); ubiquitin, 76-residue unit, third of four (residues 153-228 of the chain); ubiquitin, 76-residue unit, fourth of four (residues 229-304 of the chain); Construct was a gift of P. Elliott and D. Komander; no tag or extra residues are …", "T1 sequence (P0CG48 1-304, one chain of several)": "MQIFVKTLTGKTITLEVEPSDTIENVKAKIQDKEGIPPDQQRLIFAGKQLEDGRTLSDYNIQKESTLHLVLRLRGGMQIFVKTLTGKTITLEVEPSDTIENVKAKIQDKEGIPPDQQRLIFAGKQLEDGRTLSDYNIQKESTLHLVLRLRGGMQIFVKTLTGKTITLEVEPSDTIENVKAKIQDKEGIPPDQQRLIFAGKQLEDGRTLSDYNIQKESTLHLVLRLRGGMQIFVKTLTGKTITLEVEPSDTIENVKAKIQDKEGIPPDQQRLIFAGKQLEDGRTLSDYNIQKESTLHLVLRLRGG", "test": "SPR; Ub3 and Ub4 immobilised by amine coupling (456 and 721 RU); NEMO injected in a twofold series; 25°C; 50 mM sodium phosphate, 50 mM NaCl, 0.005% Tween 20, pH 7; equilibrium responses fitted to a 1:1 Langmuir isotherm", "conditions": "both partners purified"}, "[2]": {"biological_target": "T2, linear (M1-linked) triubiquitin (UniProt P0CG48 1-76; P0CG48 1-76; P0CG48 1-76)", "T2 construct": "ubiquitin, 76-residue unit, first of three joined head to tail (residues 1-76 of the chain); ubiquitin, 76-residue unit, second of three (residues 77-152 of the chain); ubiquitin, 76-residue unit, third of three (residues 153-228 of the chain); Construct was a gift of P. Elliott and D. Komander; no tag or extra residues are told; One polypeptide of three ubiquitin units linked M1 to C-terminus; …", "T2 sequence (P0CG48 1-228, one chain of several)": "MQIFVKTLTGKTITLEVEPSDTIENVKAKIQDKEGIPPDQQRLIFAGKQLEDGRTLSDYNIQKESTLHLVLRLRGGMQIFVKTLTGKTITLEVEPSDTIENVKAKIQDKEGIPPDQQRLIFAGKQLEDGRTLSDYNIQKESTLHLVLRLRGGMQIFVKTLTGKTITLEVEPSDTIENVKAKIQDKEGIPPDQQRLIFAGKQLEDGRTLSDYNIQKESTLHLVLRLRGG", "test": "SPR; Ub3 and Ub4 immobilised by amine coupling (456 and 721 RU); NEMO injected in a twofold series; 25°C; 50 mM sodium phosphate, 50 mM NaCl, 0.005% Tween 20, pH 7; equilibrium responses fitted to a 1:1 Langmuir isotherm", "conditions": "both partners purified"}, "[3]": {"biological_target": "T1, linear (M1-linked) tetraubiquitin", "test": "ITC; NEMO titrated into Ub3 or Ub4 in the cell; 298 K; 50 mM sodium phosphate pH 7.0, 50 mM NaCl; triplicate", "conditions": "both partners purified"}, "[4]": {"biological_target": "T2, linear (M1-linked) triubiquitin", "test": "ITC; NEMO titrated into Ub3 or Ub4 in the cell; 298 K; 50 mM sodium phosphate pH 7.0, 50 mM NaCl; triplicate", "conditions": "both partners purified"}, "[5]": {"biological_target": "T1, linear (M1-linked) tetraubiquitin", "test": "SEC-MALS; SEC (Superdex 200 10/300 GL, 4°C) with static light scattering (right-angle, Viscotek TDA 305, 30°C); about 8 mg/ml; 50 mM tris-HCl, 300 mM NaCl pH 8.0 and 50 mM sodium phosphate, 50 mM NaCl pH 7.0", "conditions": "both partners purified"}, "[6]": {"biological_target": "the molecule itself", "test": "SEC-MALS; SEC (Superdex 200 10/300 GL, 4°C) with static light scattering (right-angle, Viscotek TDA 305, 30°C); about 8 mg/ml; 50 mM tris-HCl, 300 mM NaCl pH 8.0 and 50 mM sodium phosphate, 50 mM NaCl pH 7.0"}, "[7]": {"biological_target": "T2, linear (M1-linked) triubiquitin", "test": "SEC-MALS; SEC (Superdex 200 10/300 GL, 4°C) with static light scattering (right-angle, Viscotek TDA 305, 30°C); about 8 mg/ml; 50 mM tris-HCl, 300 mM NaCl pH 8.0 and 50 mM sodium phosphate, 50 mM NaCl pH 7.0", "conditions": "both partners purified"}}, "data": [{"binder": "Human NEMO258-350 C347S (NEMO UBAN domain) (domain or fragment, UniProt Q9Y6K9 258-350, looked up, NEMO (IKKγ, NF-κB essential modulator), human, residues 258-350 (UBAN domain) with C347S; also called NEMO mutant (C347S); IKKγ; source: expressed and purified as described in Vincendeau et al. (23)) MQLEDLKQQLQQAEEALVAKQEVIDKLKEEAEQHKIVMETVPVLKAQADIYKADFQAERQAREKLAEKKELLQEQLEQLQREYSKLKASSQES", "values": [{"measurement": "Kd", "setting": "[1]", "value": 6.4, "unit": "µM"}, {"measurement": "Kd", "setting": "[2]", "value": 9.6, "unit": "µM"}, {"measurement": "Kd", "setting": "[3]", "value": 4.1, "unit": "µM"}, {"measurement": "dH", "setting": "[3]", "value": -4.49, "unit": "kcal/mol"}, {"measurement": "Kd", "setting": "[4]", "value": 1.6, "unit": "µM"}, {"measurement": "dH", "setting": "[4]", "value": -4.28, "unit": "kcal/mol"}, {"measurement": "stoichiometry N", "setting": "[5]", "value": "2 NEMO:Ub4"}, {"measurement": "binding result", "setting": "[6]", "value": "binds"}, {"measurement": "stoichiometry N", "setting": "[7]", "value": "2 NEMO:Ub3"}]}]}
